Data as given in the supplement of paper PMC9732359.
± gives the uncertainty stated by the source.

Assay: protein stability index of a GFP-peptide fusion (yeast GPS) (PSI 1-4); higher = more stable; sorted into four equal gates, so the index is relative within each strain
Procedure, shortened: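 For each peptide, the protein stability index sums the read frequency in every gate after multiplying it by the gate number. Read frequencies came from plasmids that were PCR-amplified from each gate and Illumina-sequenced, with reads assigned to strains by barcodes. The gates were four equal bins of GFP/Cherry fluorescence ratio applied to mid-log yeast in leucine-free medium carrying a pooled library of tiled 17-residue yeast protein peptides fused downstream of GFP on a Cherry-expressing plasmid.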

Sequence	protein stability index (doa10∆)	protein stability index (pdr5∆)	protein stability index (san1∆)	protein stability index (ubr1∆)
MDLLKFSSLAISEINFL [CSI1]	2.1 ± 0.045	2.49 ± 0.037	2.16 ± 0.053	2.35 ± 0.047
MDPGAPLPVETPRDRRK [SSN2]	–	–	3.25 ± 0.25	–
MEDIEKIKPYVRSFSKA [LRP1]	2.64 ± 0.062	3 ± 0.05	2.51 ± 0.069	2.74 ± 0.038
MEEEQQRQERLRQQQQQ [RPN10]	3.4 ± 0.17	2.86 ± 0.25	3.37 ± 0.066	3.39 ± 0.085
MENNEPAMAMEDLKNFI [SRB8]	3.18 ± 0.074	3.29 ± 0.081	3.24 ± 0.043	3.08 ± 0.068
MFAYAKEHEPCIIFMDE [RPT4]	2.34 ± 0.043	2.32 ± 0.05	2.24 ± 0.065	2.4 ± 0.043
MFLYILKHLEEMGKLRE [RRI2]	3.11 ± 0.11	3.16 ± 0.11	3.04 ± 0.078	3.16 ± 0.051
MFRNNYDGDTVTFSPTG [PRE5]	2.41 ± 0.12	2.84 ± 0.096	2.52 ± 0.11	3.18 ± 0.073
MFTQIYLERIELSFYIL [YML103C/NUP188]	1.66 ± 0.1	1.46 ± 0.074	1.36 ± 0.1	1.75 ± 0.12
MGKGKPRGLNSARKLRV [RPS23A]	2.4 ± 0.089	3.05 ± 0.08	2.96 ± 0.094	2.79 ± 0.072
MGPLSNIAQMIPGMSNM [SRP54]	2.49 ± 0.049	2.75 ± 0.045	2.58 ± 0.048	2.69 ± 0.04
MGRVIRNQRKGAGSIFT [RPL2A]	2.95 ± 0.2	3.28 ± 0.12	2.77 ± 0.25	2.75 ± 0.15
MGVPIYGIVAMAATATD [FAS2]	1.34 ± 0.068	1.52 ± 0.052	1.54 ± 0.089	1.47 ± 0.051
MIKESSTANPNIKLLNN [POP1]	3.07 ± 0.2	2.9 ± 0.11	2.83 ± 0.087	2.74 ± 0.066
MIQEVIVEEDLEPFEAS [FAS2]	3.5 ± 0.18	3.16 ± 0.11	3.53 ± 0.063	3.47 ± 0.099
MISIIKLVTNVVDPKTS [YML103C/NUP188]	1.84 ± 0.047	1.81 ± 0.045	2.04 ± 0.093	1.67 ± 0.035
MKAVRKVAEVKKLEGTI [RPT4]	3.15 ± 0.093	3.2 ± 0.1	3.16 ± 0.073	3.56 ± 0.071
MKFQESLKKVDEIKAQR [SMC4]	–	3.57 ± 0.26	3.34 ± 0.17	3.57 ± 0.082
MKKKLELISYRNESLKN [SRB8]	2.96 ± 0.045	2.98 ± 0.058	2.94 ± 0.05	3.07 ± 0.035
MKLNISYPVNGSQKTFE [RPS6A]	2.65 ± 0.17	2.77 ± 0.12	2.79 ± 0.12	2.94 ± 0.13
MKLSMPPEVTSSNCHVR [POP1]	2.4 ± 0.066	2.6 ± 0.075	2.32 ± 0.076	2.48 ± 0.042
MKNENANPKKLALMTAH [CDC53]	2.12 ± 0.039	2.33 ± 0.046	2.09 ± 0.048	1.79 ± 0.032

Sequence	protein stability index (doa10∆)	protein stability index (pdr5∆)	protein stability index (san1∆)	protein stability index (ubr1∆)
MKRNCGQIITLFSSRRL [RMP1]	2.3 ± 0.045	2.46 ± 0.053	2.42 ± 0.058	2.29 ± 0.071
MLLANISVARKIYDAFP [DIS3]	1.69 ± 0.04	1.91 ± 0.041	2 ± 0.093	1.73 ± 0.041
MLLITSGDSGVYTLACR [RPC11]	1.58 ± 0.1	2.45 ± 0.13	3 ± 0.093	2.46 ± 0.088
MLLLNIFISSDHEFVLI [YMR129W/POM152]	1.64 ± 0.057	1.28 ± 0.055	1.32 ± 0.098	1.23 ± 0.057
MLLVDIIPSRMGEAQTG [REC8]	1.7 ± 0.063	1.87 ± 0.073	2.02 ± 0.09	2.17 ± 0.061
MLQKKLVEVEDEKIEAI [SRB7]	3 ± 0.11	3.37 ± 0.1	3.16 ± 0.082	3.39 ± 0.086
MLTIARLGFFYNDQLYV [RPN7]	2.13 ± 0.093	1.66 ± 0.19	1.47 ± 0.29	2.2 ± 0.19
MLVKAVANSTKAAFIRV [RPT3]	1.97 ± 0.05	1.5 ± 0.047	1.38 ± 0.11	1.27 ± 0.036
MMEEIINVVIKASRKSV [ECM29]	1.76 ± 0.073	1.75 ± 0.068	2.04 ± 0.21	1.53 ± 0.12
MMLGEHLMSWSKTGIIA [SIN4]	1.6 ± 0.11	1.24 ± 0.11	1.06 ± 0.13	1.53 ± 0.27
MMVNNQTMQLIKNVQDL [SRB6]	2.84 ± 0.25	2.3 ± 0.16	1.64 ± 0.13	3.03 ± 0.17
MNDVINTEEVNRLEKEQ [LIN1]	2.99 ± 0.1	3.31 ± 0.17	3.27 ± 0.074	3.61 ± 0.085
MNGIQVDINRLKKGEVS [PRE3]	2.15 ± 0.095	1.57 ± 0.063	2.52 ± 0.082	1.36 ± 0.061
MNGNGKPGIPRGNTKIH [SIR3]	–	2.83 ± 0.23	3.32 ± 0.094	3.25 ± 0.18
MNHDPFSWGRPADSTYG [PRE4]	3.05 ± 0.086	3.28 ± 0.087	3.15 ± 0.057	3.22 ± 0.052
MNMFGGGMGGGMGGGMP [SRP54]	1.38 ± 0.055	2.43 ± 0.21	1.69 ± 0.17	1.53 ± 0.18
MNNQPQGTNSVPNSIGN [SNF5]	2.87 ± 0.074	3.1 ± 0.096	3.04 ± 0.12	2.92 ± 0.055
MPNIELYLKVIPMDFIR [SSN2]	2.22 ± 0.072	2.14 ± 0.076	1.95 ± 0.082	2.54 ± 0.079
MPSRFTKTRKHRGHVSA [RPL28]	1.92 ± 0.06	2.19 ± 0.062	2.09 ± 0.12	2.39 ± 0.062
MQKPVPFVPVLDRRFEI [FAS1]	1.98 ± 0.034	1.95 ± 0.03	1.82 ± 0.043	1.92 ± 0.028
MQKQHEMKTQAAELQEK [SNF6]	1.79 ± 0.14	3 ± 0.17	3.05 ± 0.055	2.54 ± 0.063
MQQAQFQAQQAQQAQQA [SNF2]	2.56 ± 0.043	2.86 ± 0.039	2.62 ± 0.032	2.53 ± 0.032
